In data set [1] the test system is db/db mice. In words: Oral glucose tolerance test (OGTT) in db/db mice after 21 days. In kind it is in vivo. As to conditions: after 21 days of treatment, 2 g/kg oral glucose, vs vehicle treated obese control. Here is the method:
(§1) Female db/db mice (BKS.Cg-m+/+Leprdb/J, age of 6 weeks) were treated with vehicle (PBS), 0.05 mg·kg^−1·day^−1 AVE0010, 0.75 mg·kg^−1·day^−1 recombinant human FGF-21 (SEQ ID NO: 2) or a combined dose of FGF-21 (SEQ ID NO: 2) and AVE0010 (0.75+0.05 mg·kg^−1·day^−1) subcutaneously once daily. Mice were fed ad libitum. Before the first treatment, after one week and 4 weeks blood glucose and HbA1c were measured under fed conditions. After 21 days of treatment an oral glucose tolerance test (OGTT) was initiated. Fasted mice were orally challenged with 2 g·kg^−1 glucose solution and blood glucose was measured at indicated time points.

The test system of data set [2] is mouse 3T3-L1 adipocytes. As to conditions: in the presence and absence of insulin; cited from earlier work.
Data set [3] has as its system db/db mice. Put plainly: Fed blood glucose in db/db mice (age of 6 weeks). In kind it is in vivo. As to conditions: fed conditions, up to 4 weeks, AVE0010 0.05, FGF-21 0.75 mg/kg/day s.c. or combined. The method, then: as §1
Data set [4] relates to ob/ob mice, db/db mice and obese ZDF rats. As to conditions: cited from earlier work.
For data set [5], the system named is diabetic rhesus monkeys. Particulars: 6 weeks; cited from earlier work.
The mark [6] stands for this setting: ob/ob and db/db mice and 8 week old ZDF rats, dose dependent (WO03/011213).
Where [7] appears, read: ob/ob, db/db mice and obese ZDF rats (Kharitonenkov et al. 2005).

Where two headings read alike, the source gives them in different places.

B1: FGF-21: recombinant human FGF-21 (SEQ ID NO: 2): deletion of amino acids 1-28 of human FGF-21 and additional N-terminal glycine (protein)
chain: GHPIPDSSPLLQFGGQVRQRYLYTDDAQQTEAHLEIREDGTVGGAADQSPESLLQLKALKPGVIQILGVKTSRFLCQRPDGALYGSLHFDPEACSFRELLLEDGYNVYQSEAHGLPLHLPGNKSPHRDPAPRGPARFLPLPGLPPAPPEPPGILAPQPPDVGSSDPLSMVGPSQGRSPSYAS
modifications: G linked to fragment of human FGF21 from H29 to S209
B1: the “glucose tolerance (OGTT)” value in data set [1] was “small improvement”. Moreover, the glucose uptake entry in data set [2] is “stimulate”. Further, the blood glucose entry in data set [3] was “inhibition of blood glucose increase”. Also, in data set [4] (any dose tested, diabetic or healthy animals), the “mitogenicity, hypoglycemia, or weight gain” value is listed as “did not induce”. In addition, the “food intake or body weight/composition” value in data set [4] (diabetic or lean mice and rats, 2 weeks of administration) is recorded as “did not affect”. Further, in data set [4] (setting [6]), the “fed and fasting blood glucose” value was “decrease”; the glucagon levels result is given as “decrease”; the triglycerides result is “decrease”. Also, in data set [4] (setting [7]), the blood glucose entry was “significantly lowered”, the fasting insulin levels entry was “decreased”, the “glucose clearance during an oral glucose tolerance test” value is given as “improved” and the triglycerides result is “significantly lowered”. In data set [5], the HDL-cholesterol result was “increased”, the LDL-cholesterol result is listed as “significantly lowered”, the body weight result is reported as “slightly but significantly decreased” and the fasting plasma glucose entry is “reduced”. Also, in data set [5], the fructosamine result was “reduced”, the glucagone levels entry is given as “reduced”, the hypoglycemia result is listed as “not observed” and the insulin entry is “reduced”. The triglyceride entry in data set [5] is recorded as “reduced”.
